# B1: acetylcholinesterase (protein)
# chain: EGREDAELLVTVRGGRLRGIRLKTPGGPVSAFLGIPFAEPPMGPRRFLPPEPKQPWSGVVDATTFQSVCYQYVDTLYPGFEGTEMWNPNRELSEDCLYLNVWTPYPRPTSPTPVLVWIYGGGFYSGASSLDVYDGRFLVQAERTVLVSMNYRVGAFGFLALPGSREAPGNVGLLDQRLALQWVQENVAAFGGDPTSVTLFGESAGAASVGMHLLSPPSRGLFHRAVLQSGAPNGPWATVGMGEARRRATQLAHLVGCPPGGTGGNDTELVACLRTRPAQVLVNHEWHVLPQESVFRFSFVPVVDGDFLSDTPEALINAGDFHGLQVLVGVVKDEGSYFLVYGAPGFSKDNESLISRAEFLAGVRVGVPQVSDLAAEAVVLHYTDWLHPEDPARLREALSDVVGDHNVVCPVAQLAGRLAAQGARVYAYVFEHRASTLSWPLWMGVPHGYEIEFIFGIPLDPSRNYTAEEKIFAQRLMRYWANFARTGDPNEPRDPKAPQWPPYTAGAQQYVSLDLRPLEVRRGLRAQACAFWNRFLPKLLSATDTLDEAERQWKAEFHRWSSYMVHWKNQFDHYSKQDRCSDL
# How the values were obtained:
# [1] = tested on: Aβ from H1299 cell-conditioned media; assay: ELISA, HN (endogenous and exogenously added) and AChE bound to Aβ from H1299 media on 82E1 antibody; type: binding, human; details: H1299 cell-conditioned media, 82E1; Fig. 6
# Description: (§1) Human NSCLC cell lines, A549 (ATCC CCL‐185) and H1299 (ATCC CRL‐5803), were purchased from the American Type Culture Collection (ATCC, Manassas, VA, USA). Cells were seeded as we reported earlier in 5 mL HyClone Dulbecco's modified Eagle's medium/nutrient mixture F‐12 (DMEM/F12) (GE Healthcare Life Sciences, Pittsburgh, PA, USA), supplemented with 10% Fetalgro bovine growth serum (FBS; RMBIO, Missoula, MT, USA), 50 U·mL^−1 penicillin, and […] streptomycin (Invitrogen, Life Technologies, Carlsbad, CA, USA) in 25‐cm^2 tissue culture flasks, and allowed to grow overnight in an incubator at 37 °C, 95% humidity, and 5% CO2. The cells were counted after trypan blue staining, with a hemocytometer.
# (§2) ELISAs were carried out as we previously reported. […] TBST was then used to wash the wells 4× before proceeding in one of two ways: (a) biotinylated samples were analyzed by adding 100 µL streptavidin–HRP conjugate in TBST (1 : 2500 dilution) to the samples followed by incubation for 3 h at RT on a shaker, or (b) samples without biotin were analyzed by adding 100 µL TBST containing the primary antibody as per the manufacturer's recommendation, incubating for 3 h at RT on a shaker, followed by washing the wells 4× with TBST. […] The reaction was stopped with 100 µL 2 M H2SO4 after incubating at RT for 0.5–15 min, resulting in a yellow color change, measured by absorbance at 450 nm. […]
# [2] = tested on: AChE-Aβ complex (H1299 cell-conditioned media); assay: ELISA, AChE found in a complex with Aβ in H1299 cell-conditioned media; type: binding, human; details: Fig. 5C,D
# Description: as §1, §2
molecule,measurement,setting,value
B1,AChE bound to Aβ,[1],barely detectable levels
same,AChE detected in complex with Aβ,[2],No AChE was detected above background
